Experimental data published in paper PMC12136491, “Establishment of an efficient one-step enzymatic synthesis of cyclic-2,3-diphosphoglycerate” (Frontiers in Microbiology, 2025).
“And” between values parts separate entries of the source, which are not always exact repeats. Equal entries are not always repeated.

Target: the molecule itself
Experiment: SEC; native molecular mass; Superose Increase 10/300 column, 50 mM MES/KOH (pH 6.5), 400 mM KCl, flow rate 0.5 mL/min, 5 mg of protein loaded

B1: cyclic-2,3-diphosphoglycerate synthetase from Methanothermus fervidus, recombinant, without affinity tag (enzyme, UniProt O93732 1-460, looked up)
chain: MGETKKMICLVDGEHYFPVVKDSIEILDDLEHIDVVAVVFIGGTEKLQIEDPKEYSEKLGKPVFFGPDPKKIPYDVIKKCVKKYNADIVMDLSDEPVVDYTKRFRIASIVLKEGAVYQGADFKFEPLTEYDVLEKPSIKIIGTGKRIGKTAVSAYAARVIHKHKYNPCVVAMGRGGPREPEIVEGNKIEITAEYLLEQADKGVHAASDHWEDALMSRILTVGCRRCGGGMLGDTFITNVKRGAEIANKLDSDFVIMEGSGAAIPPVKTNRQIVTVGANQPMININNFFGPFRIGLADLVIITMCEEPMATTEKIKKVEKFIKEINPSANVIPTVFRPKPVGNVEGKKVLFATTAPKVVVGKLVNYLESKYGCDVVGVTPHLSNRPLLRRDLKKYINKADLMLTELKAAAVDVATRVAIEAGLDVVYCDNIPVVIDESYGNIDDAIIEVVEMAIDDFKNNR
notes: cyclic 2,3-diphosphoglycerate synthetase (cdpgs gene, 1,383 bp) of Methanothermus fervidus, Mfer_0077, CAA70986; calculated molecular mass 50.7 kDa; codon-optimized gene, no tag; also called MfcDPGS; cDPGS
Question: B1 was tested. Which “stoichiometry N” value did it give?
Answer: 2 and 4
